Experimental data taken from US20170333517.

Target: T1, N-acetyl-proline-glycine-proline
T1 chain: PGP

B1: recombinant human angiotensin converting enzyme (protein)
chain: LDPGLQPGNFSADEAGAQLFAQSYNSSAEQVLFQSVAASWAHDTNITAENARRQEEAALLSQEFAEAWGQKAKELYEPIWQNFTDPQLRRIIGAVRTLGSANLPLAKRQQYNALLSNMSRIYSTAKVCLPNKTATCWSLDPDLTNILASSRSYAMLLFAWEGWHNAAGIPLKPLYEDFTALSNEAYKQDGFTDTGAYWRSWYNSPTFEDDLEHLYQQLEPLYLNLHAFVRRALHRRYGDRYINLRGPIPAHLLGDMWAQSWENIYDMVVPFPDKPNLDVTSTMLQQGWNATHMFRVAEEFFTSLELSPMPPEFWEGSMLEKPADGREVVCHASAWDFYNRKDFRIKQCTRVTMDQLSTVHHEMGHIQYYLQYKDLPVSLRRGANPGFHEAIGDVLALSVSTPEHLHKIGLLDRVTNDTESDINYLLKMALEKIAFLPFGYLVDQWRWGVFSGRTPPSRYNFDWWYLRTKYQGICPPVTRNETHFDAGAKFHVPNVTPYIRYFVSFVLQFQFHEALCKEAGYEGPLHQCDIYRSTKAGAKLRKVLQAGSSRPWQEVLKDMVGLDALDAQPLLKYFQPVTQWLQEQNQQNGEVLGWPEYQWHPPLPDNYPEGIDLVTDEAEASKFVEEYDRTSQVVWNEYAEANWNYNTNITTETSKILLQKNMQIANHTLKYGTQARKFDVNQLQNTTIKRIIKKVQDLERAALPAQELEEYNKILLDMETTYSVATVCHPNGSCLQLEPDLTNVMATSRKYEDLLWAWEGWRDKAGRAILQFYPKYVELINQAARLNGYVDAGDSWRSMYETPSLEQDLERLFQELQPLYLNLHAYVRRALHRHYGAQHINLEGPIPAHLLGNMWAQTWSNIYDLVVPFPSAPSMDTTEAMLKQGWTPRRMFKEADDFFTSLGLLPVPPEFWNKSMLEKPTDGREVVCHASAWDFYNGKDFRIKQCTTVNLEDLVVAHHEMGHIQYFMQYKDLPVALREGANPGFHEAIGDVLALSVSTPKHLHSLNLLSSEGGSDEHDINFLMKMALDKIAFIPFSYLVDQWRWRVFDGSITKENYNQEWWSLRLKYQGLCPPVPRTQGDFDPGAKFHIPSSVPYIRYFVSFIIQFQFHEALCQAAGHTGPLHKCDIYQSKEAGQRLATAMKLGFSRPWPEAMQLITGQPNMSASAMLSYFKPLLDWLRTENELHGEKLGWPQYNWTPNSARSEGPLPDSGRVSFLGLDLDAQQARVGQWL
- degradation of Ac-PGP (residual Ac-PGP by ESI-LC-MS/MS after 24 h; 1 µg/ml enzyme, 100 µg/ml Ac-PGP): ACE degraded 70% of Ac-PGP

B2: recombinant human aminopeptidase N (protein)
chain: KAWNRYRLPNTLKPDSYRVTLRPYLTPNDRGLYVFKGSSTVRFTCKEATDVIIIHSKKLNYTLSQGHRVVLRGVGGSQPPDIDKTELVEPTEYLVVHLKGSLVKDSQYEMDSEFEGELADDLAGFYRSEYMEGNVRKVVATTQMQAADARKSFPCFDEPAMKAEFNITLIHPKDLTALSNMLPKGPSTPLPEDPNWNVTEFHTTPKMSTYLLAFIVSEFDYVEKQASNGVLIRIWARPSAIAAGHGDYALNVTGPILNFFAGHYDTPYPLPKSDQIGLPDFNAGAMENWGLVTYRENSLLFDPLSSSSSNKERVVTVIAHELAHQWFGNLVTIEWWNDLWLNEGFASYVEYLGADYAEPTWNLKDLMVLNDVYRVMAVDALASSHPLSTPASEINTPAQISELFDAISYSKGASVLRMLSSFLSEDVFKQGLASYLHTFAYQNTIYLNLWDHLQEAVNNRSIQLPTTVRDIMNRWTLQMGFPVITVDTSTGTLSQEHFLLDPDSNVTRPSEFNYVWIVPITSIRDGRQQQDYWLIDVRAQNDLFSTSGNEWVLLNLNVTGYYRVNYDEENWRKIQTQLQRDHSAIPVINRAQIINDAFNLASAHKVPVTLALNNTLFLIEERQYMPWEAALSSLSYFKLMFDRSEVYGPMKNYLKKQVTPLFIHFRNNTNNWREIPENLMDQYSEVNAISTACSNGVPECEEMVSGLFKQWMENPNNNPIHPNLRSTVYCNAIAQGGEEEWDFAWEQFRNATLVNEADKLRAALACSKELWILNRYLSYTLNPDLIRKQDATSTIISITNNVIGQGLVWDFVQSNWKKLFNDYGGGSFSFSNLIQAVTRRFSTEYELQQLEQFKKDNEETGFGSGTRALEQALEKTKANIKWVKENKEVVLQWFTENSK
- degradation of Ac-PGP (residual Ac-PGP by ESI-LC-MS/MS after 24 h; 1 µg/ml enzyme, 100 µg/ml Ac-PGP): APN had no activity
